# According to publication PMC12949252:
# Key:
# SEL1L-S658P-FLAG (mouse) = test: co-IP
# SEL1L-G585D-FLAG (mouse) = test: co-IP
Molecule,percent reduction of binding against WT (SEL1L-S658P-FLAG (mouse)),percent reduction of binding against WT (SEL1L-G585D-FLAG (mouse))
"HRD1 (endogenous, HEK293T) (from UniProt Q86TM6 1-617) (enzyme)",70%,–
"OS9 (endogenous, HEK293T) (natural protein) GGVGSLNLEELSEMRYGIEILPLPVMGGQSQSSDVVIVSSKYKQRYECRLPAGAIHFQREREEETPAYQGPGIPELLSPMRDAPCLLKTKDWWTYEFCYGRHIQQYHMEDSEIKGEVLYLGYYQSAFDWDDETAKASKQHRLKRYHSQTYGNGSKCDLNGRPREAEVRFLCDEGAGISGDYIDRVDEPLSCSYVLTIRTPRLCPHPLLRPPPSAAPQAILCHPSLQPEEYMAYVQRQADSKQYGDKIIEELQDLGPQVWSETKSGVAPQKMAGASPTKDDSKDSDFWKMLNEPEDQAPGGEEVPAEEQDPSPEAADSASGAPNDFQNNVQVKVIRSPADLIRFIEELKGGTKKGKPNIGQEQPVDDAAEVPQREPEKERGDPERQREMEEEEDEDEDEDEDEDERQLLGEFEKELEGILLPSDRDRLRSEVKAGMERELENIIQETEKELDPDGLKKESERDRAMLALTSTLNKLIKRLEEKQSPELVKKHKKKRVVPKKPPPSPQPTEEDPEHRVRVRVTKLRLGGPNQDLTVLEMKRENPQLKQIEGLVKELLEREGLTAAGKIEIKIVRPWAEGTEEGARWLTDEDTRNLKEIFFNILVPGAEEAQKERQRQKELESNYRRVWGSPGGEGTGDLDEFDF",–,90%
